B1: GST-HPV16 E7 (other)
chain: MHGDTPTLHEYMLDLQPETTDLYCYEQLNDSSEEEDEIDGPAGQAEPDRAHYNIVTFCCKCDSTLRLCVQSTHVDIRTLEDLLMGTLGIVCPICSQKP
notes: range 1-98; GST fusion from pGEX-4T-3; also called GST-16E7; full length GST-HPV 16 E7; not shown: glutathione-S-transferase (GST) moiety of vector pGEX-4T-3, at the amino-terminus
B2: GST-HPV31 E7 (other)
chain: MRGETPTLQDYVLDLQPEATDLHCYEQLPDSSDEEDVIDSPAGQAEPDTSNYNIVTFCCQCKSTLRLCVQSTQVDIRILQELLMGSFGIVCPNCSTRL
notes: GST fusion from pGEX-4T-3; also called GST-31E7; not shown: glutathione-S-transferase (GST) moiety of vector pGEX-4T-3, at the amino-terminus
B3: His-p21C (other)
chain: GLPKLYLPTGPRRGRDELGGGRRPGTSPALLQGTAEEDHVDLSLSCTLVPRSGEQAEGSPGGPGDSQGRKRRQTSMTDFYHSKRRLIFSKRKP
notes: range 72-164; also called carboxy terminal residues 72-164 of p21; not shown: poly-histidine tag from vector pET15b

In one assay the target is T1, His-p27N (human, UniProt P46527 1-101).
T1 construct: range 1-101; also called amino terminal residues 1-101 from p27; not shown: poly-histidine tag from the expression vector
T1 sequence (P46527 1-101): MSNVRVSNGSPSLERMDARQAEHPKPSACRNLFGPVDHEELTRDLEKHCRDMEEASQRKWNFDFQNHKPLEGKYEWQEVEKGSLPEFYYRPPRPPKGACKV
The assay can be described thus: GST pull-down on glutathione-agarose beads, SDS-PAGE, Coomassie blue and Western blot.

The target of a further assay is T2, His-p27C (human, UniProt P46527 95-198).
T2 construct: range 95-198; also called carboxy terminal residues 95-198 of p27; not shown: poly-histidine tag from the expression vector
T2 sequence (P46527 95-198): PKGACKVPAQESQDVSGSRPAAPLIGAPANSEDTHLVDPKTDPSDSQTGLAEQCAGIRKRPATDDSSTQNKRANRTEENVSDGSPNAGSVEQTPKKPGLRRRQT
Described as above.

For assay [1], the target named is CDK2 kinase complex (cyclin not given) (UniProt P24941 1-298). The assay can be described thus: cell-based or functional assay.
A further assay has as its target cyclin A/CDK2 complex (UniProt P20248 1-432; P24941 1-298). The assay can be described thus: cell-based or functional assay.
For the assay “GST-HPV31 E7”, the target named is B2. In words: GST pull-down on glutathione-agarose beads, SDS-PAGE, Coomassie blue and Western blot. Background: A western blot detects proteins with antibodies after separation by electrophoresis.
The target of the assay “GST-HPV16 E7” is B1. The description is as above.

cyclin A/CDK2 complex, sequence (P20248 whole entry, one chain of several): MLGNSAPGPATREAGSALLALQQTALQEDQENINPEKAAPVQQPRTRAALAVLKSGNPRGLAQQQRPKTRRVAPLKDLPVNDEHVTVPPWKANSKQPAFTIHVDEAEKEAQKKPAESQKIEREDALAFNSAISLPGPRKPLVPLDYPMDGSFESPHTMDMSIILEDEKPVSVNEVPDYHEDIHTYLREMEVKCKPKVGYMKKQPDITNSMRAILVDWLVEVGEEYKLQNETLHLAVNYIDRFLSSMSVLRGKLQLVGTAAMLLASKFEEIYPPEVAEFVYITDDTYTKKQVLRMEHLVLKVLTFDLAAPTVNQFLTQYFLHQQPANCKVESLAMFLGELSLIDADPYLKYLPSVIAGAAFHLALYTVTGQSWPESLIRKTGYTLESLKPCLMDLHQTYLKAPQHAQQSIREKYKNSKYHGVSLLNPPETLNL

Regarding B1, the binding result with His-p27N and in the assay with His-p27C was “no binding” throughout. Also, in assay [1], the “CDK2 histone kinase activity, fold activation” value amounted to 18.2 fold. Moreover, the “cyclinA/CDK2 histone H1 kinase activity (PhosphorImager)” value with cyclin A/CDK2 complex is 26 fold.
On to B2, for which the binding result with His-p27N and with His-p27C was “no binding” each time. In addition, the “CDK2 histone kinase activity, fold activation” value in assay [1] worked out at 12.6 fold.
As for B3, the binding result in the assay with GST-HPV31 E7 and with GST-HPV16 E7 was “no binding” throughout.

(Values after patent US20010029022A1 (PHARMACIA AND UPJOHN, published 2001).)
